The target in assay [1] is filamentous actin (F-actin) (UniProt P68135). Description: co-sedimentation; His-tagged vinculin or mutants (2 uM; WT also at 0.25 uM with 10 or 25 uM peptide) with 4 uM pre-polymerized F-actin and 25 uM VBS3(talin) peptide as activator; 50 mM Tris-HCl pH 8.0, 0.2 mM MgCl2, 0.2 mM ATP, 1 mM DTT; 1 h at 24 C; 150,000 x g 1 h at 4 C; SDS-PAGE, CBB staining, ratio of precipitated to total vinculin by ImageJ.

For assay [2] the target is unchanged. Description: co-sedimentation; His-tagged vinculin or mutants (1 uM) with 4 uM pre-polymerized F-actin and 10 uM GST-VBS(IpaA 610-633) as activator; 50 mM Tris-HCl pH 8.0, 0.2 mM MgCl2, 0.2 mM ATP, 1 mM DTT; 1 h at 24 C; 150,000 x g 1 h at 4 C; SDS-PAGE, CBB staining, ratio of precipitated to total vinculin by ImageJ.
The target of assay [3] is filamentous actin (F-actin), P68135. In words: actin co-sedimentation assay. The following applies: chain shown with the change.

Numbering of substitutions follows the chain as printed. Numbers in names are those of the source.

Take “His-tagged WT vinculin (from UniProt Q64727 1-1066) (natural protein)”: the percent of vinculin coprecipitated with F-actin in assay [1] was found to be 40%; in assay [2] it was 84%. On to “His-tagged vinculin IA mutant (I997A) (from UniProt Q64727 1-1066) (natural protein)”, for which the percent of vinculin coprecipitated with F-actin in assay [2] was 42%. The same measure, in the same setting: to “His-tagged vinculin VA mutant (V1001A) (from UniProt Q64727 1-1066) (natural protein)” belongs 53%.

B1: His-tagged WT vinculin, Q64727 D974A; K975A; R976A; R978A (protein)
chain: MPVFHTRTIESILEPVAQQISHLVIMHEEGEVDGKAIPDLTAPVAAVQAAVSNLVRVGKETVQTTEDQILKRDMPPAFIKVENACTKLVQAAQMLQSDPYSVPARDYLIDGSRGILSGTSDLLLTFDEAEVRKIIRVCKGILEYLTVAEVVETMEDLVTYTKNLGPGMTKMAKMIDERQQELTHQEHRVMLVNSMNTVKELLPVLISAMKIFVTTKNSKNQGIEEALKNRNFTVEKMSAEINEIIRVLQLTSWDEDAWASKDTEAMKRALASIDSKLNQAKGWLRDPNASPGDAGEQAIRQILDEAGKVGELCAGKERREILGTCKMLGQMTDQVADLRARGQGASPVAMQKAQQVSQGLDVLTAKVENAARKLEAMTNSKQSIAKKIDAAQNWLADPNGGPEGEEQIRGALAEARKIAELCDDPKERDDILRSLGEIAALTSKLGDLRRQGKGDSPEARALAKQVATALQNLQTKTNRAVANSRPAKAAVHLEGKIEQAQRWIDNPTVDDRGVGQAAIRGLVAEGHRLANVMMGPYRQDLLAKCDRVDQLTAQLADLAARGEGESPQARALASQLQDSLKDLKAQMQEAMTQEVSDVFSDTTTPIKLLAVAATAPPDAPNREEVFDERAANFENHSGRLGATAEKAAAVGTANKSTVEGIQASVKTARELTPQVISAARILLRNPGNQAAYEHFETMKNQWIDNVEKMTGLVDEAIDTKSLLDASEEAIKKDLDKCKVAMANIQPQMLVAGATSIARRANRILLVAKREVENSEDPKFREAVKAASDELSKTISPMVMDAKAVAGNISDPGLQKSFLDSGYRILGAVAKVREAFQPQEPDFPPPPPDLEQLRLTDELAPPKPPLPEGEVPPPRPPPPEEKDEEFPEQKAGEVINQPMMMAARQLHDEARKWSSKGNDIIAAAKRMALLMAEMSRLVRGGSGTKRALIQCAKDIAKASDEVTRLAKEVAKQCTAAAIATNLLQVCERIPTISTQLKILSTVKATMLGRTNISDEESEQATEMLVHNAQNLMQSVKETVREAEAASIKIRTDAGFTLRWVRKTPWYQ
As to B1, the response in assay [3] (2 μM His-tagged vinculin, 25 μM VBS3(talin), parent: est. 41, read off a plot) was 59%.

B2: His-tagged WT vinculin, Q64727 I997A; V1001A (protein)
chain: B1 chain with A974D, A975K, A976R, A978R, I997A, V1001A
In the case of B2, the response in assay [3] (1 μM His-tagged vinculin, 10 μM GST-VBS(IpaA), parent: est. 84, read off a plot) turned out to be 43%.

The values above are taken from PMC5384775.
